For assay [1], the target named is T1, dROS1 (Sevenless) extracellular region construct 2-3 (D. melanogaster, UniProt P13368 440-931).
T1 chain: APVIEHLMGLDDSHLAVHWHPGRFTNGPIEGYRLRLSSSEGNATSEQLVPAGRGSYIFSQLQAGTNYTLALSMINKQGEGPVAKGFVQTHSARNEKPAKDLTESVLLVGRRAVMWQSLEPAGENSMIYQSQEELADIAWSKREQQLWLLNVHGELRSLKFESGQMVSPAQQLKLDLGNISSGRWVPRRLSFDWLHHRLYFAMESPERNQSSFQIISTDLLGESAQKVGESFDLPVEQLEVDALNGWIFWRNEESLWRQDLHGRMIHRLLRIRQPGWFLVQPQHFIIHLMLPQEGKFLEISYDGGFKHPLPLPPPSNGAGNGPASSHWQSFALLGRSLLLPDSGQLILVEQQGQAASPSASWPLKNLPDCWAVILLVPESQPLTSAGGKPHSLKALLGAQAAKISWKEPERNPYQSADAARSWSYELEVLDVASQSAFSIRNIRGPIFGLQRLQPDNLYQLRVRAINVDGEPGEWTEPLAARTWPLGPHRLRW
As to the kind of experiment: SPR. (In general: In SPR one partner is held on a chip, and binding of the other changes the refractive index at the surface.)

The target of assay [2] is T2, dROS1 (Sevenless) full extracellular region, construct 1-9 (D. melanogaster, UniProt P13368 126-2113).
T2 construct: Sevenless (dROS1), D. melanogaster, extracellular region with FNIII domains 1 to 9, residues 126-2113; A Factor Xa cut site stands between the N-terminal octa-histidine tag and the protein; Coupled covalently to a CM5 chip in SPR; also called dROS1 1-9; full ECR of dROS1; source: Trichoplusia ni (Hi5) cells, baculovirus, purified from the medium (Ni resin, SEC)
Briefly: SPR; BIAcore T200; dROS1 constructs covalently coupled (NHS/EDC) to a CM5 chip, BOSS ECR proteins flowed over at 10 µL/min for 180 s; 20 mM HEPES pH 7.5, 100 mM NaCl; plateau RU against BOSS concentration fitted to a single-site specific binding model. Conditions: both partners purified.

In assay [3] the target is T3, dROS1 (Sevenless) extracellular region construct 1-4, his-tagged (D. melanogaster, UniProt P13368 126-1298).
T3 construct: Sevenless (dROS1), D. melanogaster, N-terminus of the ECR to the fourth FNIII domain, residues 126-1298; His tag is said to be kept for the HDX-MS experiment (immobilised on Ni resin); Factor Xa cut site after the His tag; also called dROS1 (1-4); N-terminal region of dROS1; source: Trichoplusia ni (Hi5) cells, baculovirus, purified from the medium (Ni resin, SEC); not shown: His8, N-terminal, …
T3 sequence (looked up): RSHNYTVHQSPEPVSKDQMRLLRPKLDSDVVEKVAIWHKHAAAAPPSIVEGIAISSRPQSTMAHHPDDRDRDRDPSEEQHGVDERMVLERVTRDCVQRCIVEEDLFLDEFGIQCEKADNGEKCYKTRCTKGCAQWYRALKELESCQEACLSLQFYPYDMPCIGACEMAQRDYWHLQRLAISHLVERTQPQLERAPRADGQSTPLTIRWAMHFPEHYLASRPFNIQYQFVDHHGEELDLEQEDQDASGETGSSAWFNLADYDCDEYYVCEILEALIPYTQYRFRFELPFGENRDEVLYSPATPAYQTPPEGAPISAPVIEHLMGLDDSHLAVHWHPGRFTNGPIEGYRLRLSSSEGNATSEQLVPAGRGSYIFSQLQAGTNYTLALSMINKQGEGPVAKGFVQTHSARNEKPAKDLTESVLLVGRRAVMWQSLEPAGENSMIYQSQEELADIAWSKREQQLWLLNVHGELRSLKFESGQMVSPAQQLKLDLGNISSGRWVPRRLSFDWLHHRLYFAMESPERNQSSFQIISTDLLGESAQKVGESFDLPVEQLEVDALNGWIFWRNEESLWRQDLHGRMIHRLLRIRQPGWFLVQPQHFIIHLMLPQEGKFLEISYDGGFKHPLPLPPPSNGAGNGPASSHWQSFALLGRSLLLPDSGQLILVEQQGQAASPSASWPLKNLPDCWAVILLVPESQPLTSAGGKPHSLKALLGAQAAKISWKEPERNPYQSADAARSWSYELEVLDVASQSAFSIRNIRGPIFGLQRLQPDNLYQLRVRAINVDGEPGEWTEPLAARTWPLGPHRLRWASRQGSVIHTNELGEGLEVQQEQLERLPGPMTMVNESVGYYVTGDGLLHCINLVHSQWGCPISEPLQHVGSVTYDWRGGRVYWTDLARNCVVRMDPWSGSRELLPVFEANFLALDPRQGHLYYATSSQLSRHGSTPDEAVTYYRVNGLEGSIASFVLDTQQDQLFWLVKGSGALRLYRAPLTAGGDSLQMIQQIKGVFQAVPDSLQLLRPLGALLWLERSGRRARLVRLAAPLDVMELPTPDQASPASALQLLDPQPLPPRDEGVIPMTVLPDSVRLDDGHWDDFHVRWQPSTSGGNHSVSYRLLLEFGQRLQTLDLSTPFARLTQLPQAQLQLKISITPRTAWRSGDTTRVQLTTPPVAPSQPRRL
Described as above. Conditions: both partners purified.

B1: BOSS (Bride Of Sevenless) extracellular region, His tag cleaved (domain or fragment, D. melanogaster, UniProt P22815 102-510, looked up)
chain: GTTASLVPEICLNGLQLTVNSADEGTVIRKQEEFVKILEGDVVLSVLTKDPDSALFVINRVNQANLIMADFEIGIRAISIDNASLAENLLIQEVQFLQQCTTYSMGIFVDWELYKQLESVIKDLEYNIWPIPGTRAHLFPKVAHLLHQMPWGEKIASVEIATETLEMYNEFMEAARQEHMCLMHFKSDDNVYIMFGNKLASHFKENGTLFSVPTDRTDDEFLADLPNRAFVLMENEIDLSTAVELDATPTALDEILIGKSVLPSRVLSFAGSIIDLMNWLRGSLSKHCKRGEEHDLYVLESCFNFLNFIEDWRTSEYRQAHDTAEILSLLLMRKLGTAMNFQMYQKKVLTLDKITGESRTELREIASQNFVTNVTTYYHYNRDNHTSLELKTKFGQVFNCQYSAGDNRR
notes: Bride of sevenless (BOSS), D. melanogaster, extracellular region, residues 102-510; also called BOSS ECR; BOSSWT; source: Trichoplusia ni (Hi5) cells, baculovirus, purified from the medium (Ni resin, SEC; Factor Xa cleavage, Ni flow-through, SEC); not shown: His8, N-terminal, cleaved
One may read the Kd as the constant that tells how readily two partners part at equilibrium. For B1, the Kd is 5 µM in assay [1], 4.4 µM in assay [2] and 3 to 5 µM in assay [3].
